Patent USRE49099 (Bayer, dated 2022)

Legend:
[1] = target: T1, human activated protein C (human, UniProt P04070 43-197; P04070 212-461); assay: SPR (Biacore), 1:1 binding model
T1 construct: also called human aPC; human APC

cyno activated protein C [2] = target: T2, cyno activated protein C (cyno (monkey)); assay: SPR (Biacore), 1:1 binding model
T2 construct: also called cyno aPC; cyno APC

human Protein C = target: T3, human Protein C (human, UniProt P04070 43-461); assay: ELISA, coated antigen
T3 construct: Zymogen used as negative control in the ELISA; also called human PC; hPC

[3] = target: T1, human activated protein C; assay: ELISA, coated antigen
cyno activated protein C [4] = target: T2, cyno activated protein C; assay: ELISA, coated antigen

Binder | Kd [1] [nM] | koff [1] [s⁻¹] | kon [1] [M⁻¹ s⁻¹] | Kd (cyno activated protein C [2]) [nM] | koff (cyno activated protein C [2]) [s⁻¹] | kon (cyno activated protein C [2]) [M⁻¹ s⁻¹] | binding result (human Protein C) | EC50 [3] [nM] | EC50 (cyno activated protein C [4]) [nM]
1573 Chimeric (antibody, V domains shown, IgG; also called chimera 1573; 1573VH (chimeric) + 1573Vk (chimeric)) VH: EVKLEESGGGLVQPGGSMKLSCVASGFTFSNYYLNWVRQSPEKGLEWVADIRLKSNNYEKHYAESVKGRFTISRDDSKSSVYLQMNNLRAEDTGIYYCIREGDYFDYWGQGTTLTVSS VL: NIVLTQSPASLAVSLGQRATISCRASESVDSFGATFMHWYQQKPGQPPKLLIYLASNLESGVPARFSGSGSRTDFTLTIDPVEADDAATYYCQQNNEDPYTFGGGTKLEIKR | 3.49 | 0.00811 | 2.32e+06 | 13.8 | 0.00766 | 555000 | no binding (tested: 20 nM) | 0.334 | 0.83
1573 mouse (antibody, V domains shown, Parental murine monoclonal antibody; also called mouse aPC monoclonal antibody 1573; HAPC1573) VH: EVKLEESGGGLVQPGGSMKLSCVASGFTFSNYYLNWVRQSPEKGLEWVADIRLKSNNYEKHYAESVKGRFTISRDDSKSSVYLQMNNLRAEDTGIYYCIREGDYFDYWGQGTTLTVSS VL: NIVLTQSPASLAVSLGQRATISCRASESVDSFGATFMHWYQQKPGQPPKLLIYLASNLESGVPARFSGSGSRTDFTLTIDPVEADDAATYYCQQNNEDPYTFGGGTKLEIKR | 5.49 | 0.0052 | 948000 | 21.1 | 0.00725 | 344000 | – | – | –
Hu1573-12 (antibody, V domains shown, Humanized IgG, human gamma 1 / kappa constant regions by vectors pCP-hCg1 and pCP-hck; also called H1573VH.1E + H1573Vk.2) VH: EVQLVESGGGLVQPGGSLRLSCAASGFTFSNYYLNWVRQAPGKGLEWVADIRLKSNNYEKHYAESVKGRFTISRDDSKNSVYLQMNSLKTEDTAVYYCIREGDYFDYWGQGTTVTVSS VL: DIVMTQTPLSLSVTPGQPASISCRASESVDSFGATFMHWYLQKPGQPPQLLIYLASNLESGVPDRFSGSGSGTDFTLKISRVEAEDVGVYYCQQNNEDPYTFGQGTKLEIKR | 6.03 | 0.00844 | 1.4e+06 | 16.1 | 0.0054 | 337000 | no binding (tested: 20 nM) | 0.339 | 0.642
Hu1573-9 (antibody, V domains shown, Humanized IgG, human gamma 1 / kappa constant regions by vectors pCP-hCg1 and pCP-hck; also called H1573VH.1D + H1573Vk.2) VH: EVQLVESGGGLVQPGGSLRLSCAASGFTFSNYYLNWVRQAPGKGLEWVGDIRLKSNNYEKHYAESVKGRFTISRDDSKSSLYLQMNSLKTEDTAVYYCIREGDYFDYWGQGTTVTVSS VL: DIVMTQTPLSLSVTPGQPASISCRASESVDSFGATFMHWYLQKPGQPPQLLIYLASNLESGVPDRFSGSGSGTDFTLKISRVEAEDVGVYYCQQNNEDPYTFGQGTKLEIKR | 5.63 | 0.00815 | 1.45e+06 | 15.2 | 0.00724 | 475000 | no binding (tested: 20 nM) | 0.313 | 0.986
Hu1573-3 (antibody, V domains shown, Humanized IgG, human gamma 1 / kappa constant regions by vectors pCP-hCg1 and pCP-hck; also called H1573VH.1B + H1573Vk.2) VH: EVQLVESGGGLVQPGGSLRLSCAASGFTFSNYYLNWVRQAPGKGLEWVGDIRLKSNNYEKHYAESVKGRFTISRDDSKNSVYLQMNSLKTEDTAVYYCIREGDYFDYWGQGTTVTVSS VL: DIVMTQTPLSLSVTPGQPASISCRASESVDSFGATFMHWYLQKPGQPPQLLIYLASNLESGVPDRFSGSGSGTDFTLKISRVEAEDVGVYYCQQNNEDPYTFGQGTKLEIKR | 5.7 | 0.00818 | 1.44e+06 | 14.2 | 0.0105 | 743000 | no binding (tested: 20 nM) | 0.592 | 0.872
Hu1573-6 (antibody, V domains shown, Humanized IgG, human gamma 1 / kappa constant regions by vectors pCP-hCg1 and pCP-hck; also called H1573VH.1C + H1573Vk.2) VH: EVQLVESGGGLVQPGGSLRLSCAASGFTFSNYYLNWVRQAPGKGLEWVADIRLKSNNYEKHYAESVKGRFTISRDDSKNSLYLQMNSLKTEDTAVYYCIREGDYFDYWGQGTTVTVSS VL: DIVMTQTPLSLSVTPGQPASISCRASESVDSFGATFMHWYLQKPGQPPQLLIYLASNLESGVPDRFSGSGSGTDFTLKISRVEAEDVGVYYCQQNNEDPYTFGQGTKLEIKR | 5.94 | 0.00848 | 1.43e+06 | 11.3 | 0.00707 | 627000 | no binding (tested: 20 nM) | 0.274 | 0.9
Hu1573-4 (antibody, V domains shown, Humanized IgG, human gamma 1 / kappa constant regions by vectors pCP-hCg1 and pCP-hck; also called H1573VH.1B + H1573Vk.2A) VH: EVQLVESGGGLVQPGGSLRLSCAASGFTFSNYYLNWVRQAPGKGLEWVGDIRLKSNNYEKHYAESVKGRFTISRDDSKNSVYLQMNSLKTEDTAVYYCIREGDYFDYWGQGTTVTVSS VL: DIVLTQTPLSLSVTPGQPASISCRASESVDSFGATFMHWYLQKPGQPPQLLIYLASNLESGVPDRFSGSGSGTDFTLKISRVEAEDVGVYYCQQNNEDPYTFGQGTKLEIKR | 5.1 | 0.00772 | 1.52e+06 | 14.2 | 0.0105 | 743000 | no binding (tested: 20 nM) | 0.583 | 0.904
Hu1573-7 (antibody, V domains shown, Humanized IgG, human gamma 1 / kappa constant regions by vectors pCP-hCg1 and pCP-hck; also called H1573VH.1C + H1573Vk.2A) VH: EVQLVESGGGLVQPGGSLRLSCAASGFTFSNYYLNWVRQAPGKGLEWVADIRLKSNNYEKHYAESVKGRFTISRDDSKNSLYLQMNSLKTEDTAVYYCIREGDYFDYWGQGTTVTVSS VL: DIVLTQTPLSLSVTPGQPASISCRASESVDSFGATFMHWYLQKPGQPPQLLIYLASNLESGVPDRFSGSGSGTDFTLKISRVEAEDVGVYYCQQNNEDPYTFGQGTKLEIKR | 6.33 | 0.00857 | 1.36e+06 | 18.5 | 0.00471 | 255000 | no binding (tested: 20 nM) | 0.445 | 0.853

Next, values leading:

Kd [1] [nM] | koff [1] [s⁻¹] | kon [1] [M⁻¹ s⁻¹] | Kd (cyno activated protein C [2]) [nM] | koff (cyno activated protein C [2]) [s⁻¹] | kon (cyno activated protein C [2]) [M⁻¹ s⁻¹] | binding result (human Protein C) | EC50 [3] [nM] | EC50 (cyno activated protein C [4]) [nM] | Binder
5.75 | 0.00833 | 1.45e+06 | 15.6 | 0.0042 | 269000 | no binding (tested: 20 nM) | 0.627 | 1.21 | Hu1573-17 (antibody, V domains shown, Humanized IgG, human gamma 1 / kappa constant regions by vectors pCP-hCg1 and pCP-hck; also called H1573VH.1F + H1573Vk.2B) VH: EVQLVESGGGLVQPGGSLRLSCAASGFTFSNYYLNWVRQAPGKGLEWVADIRLKSNNYEKHYAESVKGRFTISRDDSKSSVYLQMNSLKTEDTAVYYCIREGDYFDYWGQGTTVTVSS VL: DIVMTQTPLSLSVTPGQPASISCRASESVDSFGATFMHWYLQKPGQPPQLLIYLASNLESGVPDRFSGSGSRTDFTLKISRVEAEDVGVYYCQQNNEDPYTFGQGTKLEIKR
6.13 | 0.00856 | 1.4e+06 | 17.6 | 0.00524 | 299000 | no binding (tested: 20 nM) | 0.225 | 0.984 | Hu1573-14 (antibody, V domains shown, Humanized IgG, human gamma 1 / kappa constant regions by vectors pCP-hCg1 and pCP-hck; also called H1573VH.1E + H1573Vk.2B) VH: EVQLVESGGGLVQPGGSLRLSCAASGFTFSNYYLNWVRQAPGKGLEWVADIRLKSNNYEKHYAESVKGRFTISRDDSKNSVYLQMNSLKTEDTAVYYCIREGDYFDYWGQGTTVTVSS VL: DIVMTQTPLSLSVTPGQPASISCRASESVDSFGATFMHWYLQKPGQPPQLLIYLASNLESGVPDRFSGSGSRTDFTLKISRVEAEDVGVYYCQQNNEDPYTFGQGTKLEIKR
4.52 | 0.00643 | 1.42e+06 | 15.8 | 0.00373 | 236000 | no binding (tested: 20 nM) | 0.233 | 1.23 | Hu1573-16 (antibody, V domains shown, Humanized IgG, human gamma 1 / kappa constant regions by vectors pCP-hCg1 and pCP-hck; also called H1573VH.1F + H1573Vk.2A) VH: EVQLVESGGGLVQPGGSLRLSCAASGFTFSNYYLNWVRQAPGKGLEWVADIRLKSNNYEKHYAESVKGRFTISRDDSKSSVYLQMNSLKTEDTAVYYCIREGDYFDYWGQGTTVTVSS VL: DIVLTQTPLSLSVTPGQPASISCRASESVDSFGATFMHWYLQKPGQPPQLLIYLASNLESGVPDRFSGSGSGTDFTLKISRVEAEDVGVYYCQQNNEDPYTFGQGTKLEIKR
6.15 | 0.00845 | 1.37e+06 | 20.2 | 0.00452 | 225000 | no binding (tested: 20 nM) | 0.288 | 0.889 | Hu1573-15 (antibody, V domains shown, Humanized IgG, human gamma 1 / kappa constant regions by vectors pCP-hCg1 and pCP-hck; also called H1573VH.1F + H1573Vk.2) VH: EVQLVESGGGLVQPGGSLRLSCAASGFTFSNYYLNWVRQAPGKGLEWVADIRLKSNNYEKHYAESVKGRFTISRDDSKSSVYLQMNSLKTEDTAVYYCIREGDYFDYWGQGTTVTVSS VL: DIVMTQTPLSLSVTPGQPASISCRASESVDSFGATFMHWYLQKPGQPPQLLIYLASNLESGVPDRFSGSGSGTDFTLKISRVEAEDVGVYYCQQNNEDPYTFGQGTKLEIKR
4.69 | 0.00655 | 1.4e+06 | 15 | 0.00343 | 229000 | no binding (tested: 20 nM) | 0.236 | 0.804 | Hu1573-13 (antibody, V domains shown, Humanized IgG, human gamma 1 / kappa constant regions by vectors pCP-hCg1 and pCP-hck; also called H1573VH.1E + H1573Vk.2A) VH: EVQLVESGGGLVQPGGSLRLSCAASGFTFSNYYLNWVRQAPGKGLEWVADIRLKSNNYEKHYAESVKGRFTISRDDSKNSVYLQMNSLKTEDTAVYYCIREGDYFDYWGQGTTVTVSS VL: DIVLTQTPLSLSVTPGQPASISCRASESVDSFGATFMHWYLQKPGQPPQLLIYLASNLESGVPDRFSGSGSGTDFTLKISRVEAEDVGVYYCQQNNEDPYTFGQGTKLEIKR
6.49 | 0.00896 | 1.38e+06 | 15.6 | 0.0042 | 269000 | no binding (tested: 20 nM) | 0.687 | 1.47 | Hu1573-11 (antibody, V domains shown, Humanized IgG, human gamma 1 / kappa constant regions by vectors pCP-hCg1 and pCP-hck; also called H1573VH.1D + H1573Vk.2B) VH: EVQLVESGGGLVQPGGSLRLSCAASGFTFSNYYLNWVRQAPGKGLEWVGDIRLKSNNYEKHYAESVKGRFTISRDDSKSSLYLQMNSLKTEDTAVYYCIREGDYFDYWGQGTTVTVSS VL: DIVMTQTPLSLSVTPGQPASISCRASESVDSFGATFMHWYLQKPGQPPQLLIYLASNLESGVPDRFSGSGSRTDFTLKISRVEAEDVGVYYCQQNNEDPYTFGQGTKLEIKR
